Test results from patent publication US10941200B2, “TREM2 cleavage modulators and uses thereof” (Deutsches Zentrum Für Neurodegenerative Erkrankungen EV, priority 2016, dated 2021).
“Also recorded” adds a separate entry of the source.

How the values were obtained:
human TREM2 [1] = molecular target: T1, human TREM2 (Homo sapiens, UniProt Q9NZC2); assay: sTREM2 ELISA of conditioned media from HEK293 Flp-In cells stably overexpressing wt TREM2 (ectodomain shedding); type: cell-based
T1 construct: HEK293 Flp-In cells either expressing human full-length TREM2 or empty vector; expressed in transfected cells
T1 sequence (Q9NZC2 19-230): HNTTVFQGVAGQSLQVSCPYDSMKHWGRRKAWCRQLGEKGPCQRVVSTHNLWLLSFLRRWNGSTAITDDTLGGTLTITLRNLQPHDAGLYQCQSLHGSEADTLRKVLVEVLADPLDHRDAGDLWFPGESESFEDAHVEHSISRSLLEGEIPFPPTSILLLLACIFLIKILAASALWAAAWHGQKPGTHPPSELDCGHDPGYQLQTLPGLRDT
Procedure: (§1) 1*10^6-1.5*10^6 cells were seeded in the 6-well format. 24 hours later fresh medium was added to the cells. Antibody clones as generated by Dr. Feederle (Helmholtz Center Munich, Core Facility Monoclonal Antibody Development) were added simultaneously, i.e. for overnight treatment (about 24 hrs), at a final concentration of 50 μg/mL. On the next day, conditioned media and cells were collected and processed as described under “Preparation of conditioned media, cell lysates, and immunoblotting”.
(§2) ADAM10 inhibitor G1254023X (5 μM final concentration) and a control monoclonal antibody, which is specific for the C terminus of human TREM2, were used as positive and negative controls, respectively.
For quantitation of levels of sTREM2 in cell culture supernatants, an ELISA for human sTREM2 was established using the Meso Scale Discovery SECTOR Imager 2400. Streptavidin-coated 96-well plates were blocked overnight at 4° C. in 0.5% bovine serum albumin (BSA) and 0.05% Tween 20 in PBS (pH 7.4) (blocking buffer). For detection of human sTREM2, plates were shaken for 1 hour at room temperature with biotinylated polyclonal goat anti-human TREM2 capture antibody (0.25 mg/ml; R&D Systems) diluted in blocking buffer. Plates were washed subsequently four times with 0.05% Tween 20 in PBS (washing buffer) and incubated for 2 hours at room temperature with samples diluted 1:4 in 0.25% BSA and 0.05% Tween 20 in PBS (pH 7.4) (assay buffer) supplemented with protease inhibitors (Sigma). Recombinant human TREM2 protein (Holzel Diagnostika) was diluted in assay buffer in a two-fold serial dilution and used for the standard curve (concentration range, 4000 to […]). Plates were washed three times for 5 min with washing buffer before incubation for 1 hour at room temperature with mouse monoclonal anti-TREM2 antibody (1 mg/ml; Santa Cruz Biotechnology; B-3) diluted in blocking buffer. After three additional washing steps, plates were incubated with a SULFO-TAG-labeled anti-mouse secondary antibody (1:1000; Meso Scale Discovery) and incubated for 1 hour in the dark. Last, plates were washed three times with washing buffer followed by two washing steps in PBS and developed by adding Meso Scale Discovery Read buffer. The light emission at 620 nm after electrochemical stimulation was measured using the Meso Scale Discovery SECTOR Imager 2400 reader. To quantify the levels of sTREM2 secreted from HEK293 Flp-In cells, conditioned media from biological replicates were analyzed in duplicates. The sTREM2 standard curves were generated using the MasterPlex ReaderFit software (MiraiBio Group, Hitachi Solutions America) through a five-parameter logistic fit. Levels of sTREM2 were subsequently normalized to levels of immature TREM2 as quantified from Western Blots.

human TREM2 [2] = molecular target: T1, human TREM2; assay: Immunoblotting of mature TREM2 in membrane fractions of HEK cells stably overexpressing wt TREM2; type: cell-based
Procedure: (§3) HEK293 Flp-In cells stably overexpressing TREM2 or TREM2-DAP12 cDNA constructs were seeded at a density of 1.5×10^5/cm^2 and medium changed 48 h post seeding. Conditioned medium was collected after 18-20 h, immediately cooled down on ice, centrifuged at 13,000 rpm for 20 min at 4° C. and supernatants frozen at −20° C. until analysis. Supernatants were directly subjected to standard 15% SDS-PAGE. To prepare membrane fractions, cells were washed twice with ice-cold PBS, resuspended in ice-cold hypotonic buffer (0.01 M Tris, pH 7; 1 mM EDTA; 1 mM EGTA), freshly supplemented with protease inhibitor (Sigma) and incubated on ice for 30 min. After snap freezing in liquid
nitrogen and thawing, the disrupted cells were centrifuged at 13,000 rpm for 45 min at 4° C.
The resulting pellet was resuspended in STE lysis buffer (150 mM NaCl, 50 mM Tris-HCl,
pH 7.6, 2 mM EDTA, 1% Triton-X 100), incubated for 20 min on ice and clarified by centrifugation at 13,000 rpm for 30 min at 4° C. Protein concentrations were measured using the BCA method, equal amounts of protein were mixed with Laemmli sample buffer, supplemented with beta mercaptoethanol, separated by SDS-PAGE and transferred onto polyvinylidene difluoride membranes (Hybond P; Amersham Biosciences, Aylesbury, UK). Bound antibodies were visualized by corresponding HRP-conjugated secondary antibodies
(§4) using enhanced chemiluminescence technique (Pierce). Quantification of immunoblots was performed on a LAS-4000 image reader and analyzed using the Multi-Gauge V3.0 software (both Fujifilm Life Science).
as §1, §2

human TREM2 [3] = assay: MALDI-TOF mass spectrometry analysis of TREM2 ectodomain cleavage (C-terminal fragment) in HEK293 cells; type: cell-based; conditions: C-terminally FLAG-tagged TREM2 in HEK293 cells; FIG. 1B; listed as GI
Procedure: HEK293 Flp-In cells stably expressing WT and H157Y TREM2 were harvested in PBS. Cell pellets were frozen at −20° C. until use. Cells were lysed in lysis buffer (4% DDM, 0.1% N-octylglucoside, 10 mM Tris-HCl, pH 8.0, 5 mM EDTA, and 140 mM NaCl) containing protease inhibitor mix (Sigma-Aldrich) for 20 min on ice. Following a clarifying spin at 13,000 g for 20 min, supernatants were subjected to a second clarifying spin by centrifugation at 100,000 g for 1 h, and incubated with anti-FLAG M2-agarose (Sigma-Aldrich) overnight by rotation at 4° C. Beads were washed four times with IP/MS buffer (0.1% N-octylglucoside, 10 mM Tris-HCl, pH 8.0, 5 mM EDTA, and 140 mM NaCl) and two times with water. Beads were stored at −20° C. until IP/MS analysis.
IP/MS analysis was performed using Voyager DE STR (Applied Biosystems) as described previously). Immunoprecipitated peptides were eluted with TFA/CH3CN/water (1:20:20) saturated with α-cyano-4-hydroxy cinnamic acid. The dissolved samples were dried on a stainless plate and subjected to MALDI-TOF MS analysis.

human TREM2 [4] = molecular target: T1, human TREM2; conditions: Kleinberger et al, 2014; cited from earlier work
human TREM2 [5] = molecular target: T1, human TREM2; assay: Anti-HA immunoblotting of soluble TREM2 (sTREM2) from conditioned media of HEK cells stably overexpressing wt TREM2; type: cell-based; conditions: antibody 50 μg/mL, 24 hrs; FIG. 7A top blot
Procedure: as §3, §4
1*10^6-1.5*10^6 cells were seeded in the 6-well format. 24 hours later fresh medium was added to the cells. Antibody clones as generated by Dr. Feederle (Helmholtz Center Munich, Core Facility Monoclonal Antibody Development) were added simultaneously, i.e. for overnight treatment (about 24 hrs), at a final concentration of 50 μg/mL. On the next day, conditioned media and cells were collected and processed as described under “Preparation of conditioned media, cell lysates, and immunoblotting”. […]

## CNC(=O)[C@@H](NC(=O)[C@H](CCCc1ccccc1)[C@H](C)N(O)C=O)C(C)(C)C [G1254023X]
Human TREM2 [1]; ADAM10 inhibitor 5 μM, about 24 hrs, positive control, normalized to immature TREM2
  decrease in shedding (sTREM2 ELISA): about 60%
Human TREM2 [2]; ADAM10 inhibitor 5 μM, positive control
  levels of mature TREM2, result in words: increased levels of mature TREM2
Human TREM2 [3]
  TREM2 C-terminal fragment cleavage peak in MALDI-TOF mass spectra upon ADAM inhibition: no identified peak; also recorded: did not show any peak
Human TREM2 [4]
  inhibition of TREM2 cleavage (literature): strongly inhibit cleavage

B1: clone 14D8: rat monoclonal antibody against TREM2 cleavage site peptide; heavy chain variable SEQ ID NO: 24, light chain variable SEQ ID NO: 34 (antibody, V domains shown)
VH: EVKLLESGGGLVQPGGSMRLSCAASGFTFTDFYMNWIRQPAGKAPEWLGLIRNKANGYTTVYNPSVKGRFTISRDNTQNMLYLQMNTLRGEDTATYYCARIGINNGGSLDYWGQGVMVTVSS
VL: DILINQSPASLTVSTGEKVTMSCRSSQSLLYSEKNQDYLAWYQQKPGQFPKLLIYGASYRHTGVPDRFTGSGSGTDFTLTISSVQAEDLADYYCEQTYSYPYTFGAGTKLELK
modifications: Clone 14D8 variable region of the heavy chain; Clone 14D8 variable region of the light chain
Human TREM2 [1]; antibody 50 μg/mL, 24 hrs, normalized to immature TREM2, FIG. 7B
  sTREM2 levels (ELISA), result in words: decreases in sTREM2 levels comparable to the ADAM10 inhibitor G1254023X; also recorded: decreased levels of sTREM2
Human TREM2 [1]; ranking among the antibody clones of the Examples
  activity to inhibit TREM2 cleavage (summary statement): very high activity to inhibit TREM2 cleavage
Human TREM2 [2]; antibody 50 μg/mL, 24 hrs, FIG. 7A bottom blot
  increase in levels of mature TREM2 in the membrane fraction (immunoblot), result in words: comparable to if not higher than the increase as seen with the ADAM10 inhibitor G1254023X
Human TREM2 [2]; antibody 50 μg/mL, 24 hrs, normalized to immature TREM2, FIG. 7C
  levels of mature TREM2 in the membrane fraction (quantified immunoblots), result in words: increases in levels of mature TREM2 comparable to or even higher than the ADAM10 inhibitor G1254023X; also recorded: increases in levels of mature TREM2 in the membrane fraction
Human TREM2 [5]
  extent of ectodomain cleavage (sTREM2 immunoblot), result in words: strongly reduce the extent of ectodomain cleavage
